In general, Kd refers to the equilibrium constant for the complex coming apart. As usually defined, the IC50 is the midpoint of a concentration-inhibition curve. Lower therefore signals higher potency.

A value given as a limit tells only on which side of the number the result lay.

One test concerns the target HLA-B*39:01. Description: IEDB peptide-MHC binding, purified MHC/competitive/fluorescence; filed as Kd, often an IC50 or EC50 that approximates it; ≥ and ≤ were set here for values at or beyond the usual limits of such assays. To be noted: source organism: Burkholderia mallei ATCC 23344.
Test [1] addresses HLA-A*01:01. The test is described as above. To be noted: source organism: Burkholderia mallei ATCC 23344.
The target of test [2] is HLA-B*08:01. The test is described as above.
In test [3] the target is HLA-A*69:01. The test is described as above. To be noted: source organism: Burkholderia mallei ATCC 23344.
The next test addresses HLA-B*48:01. Description: IEDB peptide-MHC binding, purified MHC/direct/fluorescence; filed as Kd, often an IC50 or EC50 that approximates it; ≥ and ≤ were set here for values at or beyond the usual limits of such assays.
The next test deals with HLA-A*26:01. Described as above.
Test [4] addresses HLA-A*02:01. The description is as above.
In a further test the target is HLA-B*40:01. The description is as above.
In test [5] the target is HLA-A*11:01. Described as above.
In test [6] the target is HLA-B*58:01. Described as above.
A further test has as its target HLA-B*27:05. The description is as above.
For test [7], the target named is HLA-B*07:02. Described as above. The following applies: source organism: Burkholderia mallei.
The next test deals with HLA-B*57:01. The description is as above.
A further test has as its target HLA-B*15:09. Described as above. The following applies: source organism: Burkholderia mallei ATCC 23344.
Test [8] has as its target HLA-A*31:01. Described as above.
The target in test [9] is HLA-B*51:01. The test is described as above.
A further test concerns the target HLA-B*38:01. The description is as above.
For another test, the target named is HLA-B*15:17. Described as above.
In a further test the target is HLA-B*15:01. The test is described as above.
Another test deals with HLA-B*46:01. Described as above.
The target in test [10] is HLA-A*03:01. The test is described as above.
The target of test [11] is HLA-B*18:01. The description is as above.
Test [12] concerns the target HLA-A*02:01. Briefly: IEDB peptide-MHC binding, purified MHC/competitive/fluorescence; ≥ and ≤ were set here for values at or beyond the usual limits of such assays. To be noted: source organism: Homo sapiens.
In test [13] the target is HLA-A*11:01. The test is described as above. The following applies: source organism: Homo sapiens.
The target in the next test is HLA-B*53:01. Described as above. To be noted: source organism: Homo sapiens.
The next test concerns the target HLA-B*35:01. The description is as above. To be noted: source organism: Homo sapiens.
The target of test [14] is HLA-B*58:01. Described as above. The following applies: source organism: Homo sapiens.
Another test concerns the target HLA-B*14:02. The description is as above. To be noted: source organism: Homo sapiens.
The target of test [15] is HLA-B*07:02. Described as above. The following applies: source organism: Homo sapiens.
In the next test the target is HLA-B*44:03. Described as above. To be noted: source organism: Homo sapiens.
For the next test, the target named is HLA-B*40:02. The test is described as above. To be noted: source organism: Homo sapiens.
Another test has as its target HLA-A*25:01. Described as above. The following applies: source organism: Homo sapiens.
The target in the next test is HLA-A*24:02. The test is described as above. The following applies: source organism: Homo sapiens.
Test [16] addresses HLA-A*01:01. The description is as above. The following applies: source organism: Homo sapiens.
Test [17] concerns the target HLA-A*31:01. The test is described as above. To be noted: source organism: Homo sapiens.
Test [18] concerns the target HLA-B*51:01. Described as above. To be noted: source organism: Homo sapiens.
Test [19] addresses HLA-B*08:01. The test is described as above. To be noted: source organism: Homo sapiens.
The target in another test is HLA-A*68:02. Described as above. To be noted: source organism: Homo sapiens.
The next test concerns the target HLA-A*29:02. Described as above. The following applies: source organism: Homo sapiens.
The next test addresses HLA-B*37:01. The description is as above. To be noted: source organism: Homo sapiens.
The target in test [20] is HLA-A*03:01. Described as above. The following applies: source organism: Homo sapiens.
Test [21] concerns the target HLA-B*18:01. Described as above. The following applies: source organism: Homo sapiens.
The target of another test is HLA-A*30:01. Description: IEDB peptide-MHC binding, purified MHC/competitive/fluorescence; filed as Kd, often an IC50 or EC50 that approximates it; ≥ and ≤ were set here for values at or beyond the usual limits of such assays. To be noted: source organism: Mycobacterium tuberculosis variant bovis BCG str. Pasteur 1173P2.
For test [22], the target named is HLA-A*01:01. Description: IEDB peptide-MHC binding, purified MHC/direct/fluorescence; filed as Kd, often an IC50 or EC50 that approximates it; ≥ and ≤ were set here for values at or beyond the usual limits of such assays. To be noted: source organism: Mycobacterium tuberculosis.
Test [23] deals with HLA-A*69:01. The description is as above. To be noted: source organism: Mycobacterium tuberculosis.
Setting [24] is: source organism: Burkholderia mallei ATCC 23344.
Where [25] appears, read: source organism: Burkholderia mallei.
Where [26] appears, read: source organism: Mycobacterium tuberculosis.
Where [27] appears, read: source organism: Mycobacterium tuberculosis str. Haarlem.

For the sequence EPFSRRHPL, the Kd with HLA-B*39:01 is 0.443 µM; with HLA-A*01:01 [1], 3.27 µM; with HLA-B*08:01 [2] (setting [24]) it was 0.0583 µM; with HLA-A*69:01 [3], 0.209 µM; with HLA-B*48:01 (setting [25]), not below 20 µM; with HLA-A*26:01 (setting [24]), not below 20 µM. Further, the Kd was not below 20 µM with HLA-A*02:01 [4] (setting [25]); not below 20 µM with HLA-B*40:01 (setting [25]); not below 20 µM with HLA-A*11:01 [5] (setting [25]); not below 20 µM with HLA-B*58:01 [6] (setting [25]); not below 20 µM with HLA-B*27:05 (setting [25]); 0.01 µM in the test with HLA-B*07:02 [7]. Also, the dissociation constant Kd with HLA-B*57:01 (setting [25]) is not below 20 µM; with HLA-B*15:09, not below 20 µM; with HLA-A*31:01 [8] (setting [25]), not below 20 µM; in the test with HLA-B*51:01 [9] (setting [25]), not below 20 µM; with HLA-B*38:01 (setting [24]), not below 20 µM; in the test with HLA-B*15:17 (setting [25]), 0.367 µM. In addition, the Kd in the test with HLA-B*15:01 (setting [25]), with HLA-B*46:01 (setting [25]), with HLA-A*03:01 [10] (setting [25]) and in the test with HLA-B*18:01 [11] (setting [25]) was not below 20 µM each time.

For the sequence GSSDFQVHFLK, the IC50 is not below 20 µM with HLA-A*02:01 [12]; 0.0665 µM with HLA-A*11:01 [13]; not below 20 µM with HLA-B*53:01; not below 20 µM in the test with HLA-B*35:01; not below 20 µM with HLA-B*58:01 [14]; not below 20 µM in the test with HLA-B*14:02. Further, the IC50 was not below 20 µM with HLA-B*07:02 [15]; not below 20 µM with HLA-B*44:03; 4.59 µM in the test with HLA-B*40:02; not below 20 µM with HLA-A*25:01; not below 20 µM in the test with HLA-A*24:02; not below 20 µM in the test with HLA-A*01:01 [16]. The IC50 in the test with HLA-A*31:01 [17] is 1.05 µM; with HLA-B*51:01 [18], not below 20 µM; with HLA-B*08:01 [19], not below 20 µM; in the test with HLA-A*68:02, not below 20 µM; with HLA-A*29:02 it was 1.46 µM; in the test with HLA-B*37:01, not below 20 µM. The IC50 is 1.02 µM in the test with HLA-A*03:01 [20] and not below 20 µM with HLA-B*18:01 [21].

As to KVADVDLAVPV, the IC50 was 0.0193 µM in the test with HLA-A*02:01 [12]; not below 20 µM with HLA-A*11:01 [13]; not below 20 µM with HLA-B*53:01; not below 20 µM with HLA-B*35:01; not below 20 µM in the test with HLA-B*58:01 [14]; not below 20 µM with HLA-B*14:02. For the same sequence, the IC50 with HLA-B*07:02 [15] is not below 20 µM; with HLA-B*44:03, not below 20 µM; with HLA-B*40:02, 0.745 µM; in the test with HLA-A*25:01 it was not below 20 µM; in the test with HLA-A*24:02, not below 20 µM; in the test with HLA-A*01:01 [16], not below 20 µM. Also, the IC50 with HLA-A*31:01 [17] is not below 20 µM; in the test with HLA-B*51:01 [18] it was not below 20 µM; with HLA-B*08:01 [19], not below 20 µM; in the test with HLA-A*68:02, 0.0243 µM; with HLA-A*29:02, not below 20 µM; with HLA-B*37:01, 0.907 µM. Moreover, the IC50 with HLA-A*03:01 [20] and with HLA-B*18:01 [21] was not below 20 µM each time.

On to RPRLWRSVI, for which the Kd in the test with HLA-B*08:01 [2] (source organism: Mycobacterium tuberculosis variant bovis BCG str. Pasteur 1173P2) is 0.324 µM; with HLA-A*30:01 it was not below 20 µM; with HLA-B*48:01 (setting [26]) it was not below 20 µM; in the test with HLA-A*26:01 (setting [27]) it was not below 20 µM; with HLA-A*02:01 [4] (setting [26]), not below 20 µM; with HLA-B*40:01 (setting [26]), not below 20 µM. The Kd in the test with HLA-A*11:01 [5] (setting [26]), with HLA-B*58:01 [6] (setting [26]), with HLA-B*27:05 (setting [26]), with HLA-B*57:01 (setting [26]), in the test with HLA-A*01:01 [22] and in the test with HLA-A*31:01 [8] (setting [26]) was not below 20 µM each time. The Kd was 0.964 µM with HLA-B*51:01 [9] (setting [26]); not below 20 µM in the test with HLA-B*38:01 (setting [27]); 2.58 µM in the test with HLA-B*15:17 (setting [26]); not below 20 µM with HLA-B*15:01 (setting [26]); not below 20 µM in the test with HLA-A*69:01 [23]; not below 20 µM with HLA-B*46:01 (setting [26]). In addition, the Kd with HLA-A*03:01 [10] (setting [26]) and with HLA-B*18:01 [11] (setting [26]) was not below 20 µM in each case.

Source of the values: the Immune Epitope Database (IEDB).
